Patent publication US20140087995A1 (published 2014)
Numbered stars: 1 amine (or outer) side, 2 acyl side, 3 side chain; on linkers, the order of the positions; unused ones are H or OH. Bridge positions count the residues as written; N and C are the ends. Side chains are listed from the residue outwards. Ends that are not written are not given here. * marks the point of attachment. C20 diacid = O=C(O)CCCCCCCCCCCCCCCCCCC(=O)*; γGlu = O=C(O)[C@H](CCC(=O)[*:2])N[*:1]; AEEA = NCCOCCOCC(=O)O

T1: rat calcitonin receptor (rat, UniProt P32214 25-516)
T1 construct: whole, on cells; Membranes of BHK tk'ts 13 cells transiently transfected with the rat calcitonin receptor; also called rCTR; rat calcitonin (a) receptor
T1 sequence (looked up): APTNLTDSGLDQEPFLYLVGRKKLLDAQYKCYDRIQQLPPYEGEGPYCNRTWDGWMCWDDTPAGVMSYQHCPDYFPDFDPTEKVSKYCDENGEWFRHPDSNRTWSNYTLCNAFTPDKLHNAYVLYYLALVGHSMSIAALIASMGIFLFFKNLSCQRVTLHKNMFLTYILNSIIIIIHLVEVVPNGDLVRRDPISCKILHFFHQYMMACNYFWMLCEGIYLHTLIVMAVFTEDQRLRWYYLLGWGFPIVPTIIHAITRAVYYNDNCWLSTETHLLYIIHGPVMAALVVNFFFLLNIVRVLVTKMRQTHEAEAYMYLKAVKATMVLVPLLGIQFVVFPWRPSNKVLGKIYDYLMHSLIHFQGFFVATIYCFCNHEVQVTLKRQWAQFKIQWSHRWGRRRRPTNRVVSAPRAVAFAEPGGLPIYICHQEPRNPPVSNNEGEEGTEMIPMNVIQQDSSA

T2: human calcitonin receptor (human, UniProt P30988 25-474)
T2 construct: whole, on cells; Membranes of a BHK tk'ts 13 cell line stably transfected with the human calcitonin receptor; also called hCTR; hCT
T2 sequence (looked up): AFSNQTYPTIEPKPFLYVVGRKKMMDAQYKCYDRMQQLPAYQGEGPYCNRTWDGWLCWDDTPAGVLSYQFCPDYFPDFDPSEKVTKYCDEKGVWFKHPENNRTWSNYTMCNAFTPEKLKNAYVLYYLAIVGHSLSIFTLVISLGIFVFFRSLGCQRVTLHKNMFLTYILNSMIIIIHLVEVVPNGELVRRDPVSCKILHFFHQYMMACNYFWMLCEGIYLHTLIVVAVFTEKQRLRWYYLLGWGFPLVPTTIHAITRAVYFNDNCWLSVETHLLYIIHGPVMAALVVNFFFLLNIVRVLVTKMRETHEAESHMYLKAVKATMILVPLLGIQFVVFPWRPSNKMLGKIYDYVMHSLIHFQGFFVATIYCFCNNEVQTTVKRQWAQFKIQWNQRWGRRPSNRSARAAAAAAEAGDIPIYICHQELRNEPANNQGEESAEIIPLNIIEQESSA

T3: rat amylin receptor (rat calcitonin receptor + rat RAMP 3) (rat, UniProt P32214 25-516; Q9JJ73 23-147)
T3 construct: whole, on cells; Membranes of BHK tk'ts 13 cells transiently transfected with the rat calcitonin receptor and rat RAMP 3; also called rAmylin-R; rat amylin 3(a) receptor
T3 sequence (looked up) 1: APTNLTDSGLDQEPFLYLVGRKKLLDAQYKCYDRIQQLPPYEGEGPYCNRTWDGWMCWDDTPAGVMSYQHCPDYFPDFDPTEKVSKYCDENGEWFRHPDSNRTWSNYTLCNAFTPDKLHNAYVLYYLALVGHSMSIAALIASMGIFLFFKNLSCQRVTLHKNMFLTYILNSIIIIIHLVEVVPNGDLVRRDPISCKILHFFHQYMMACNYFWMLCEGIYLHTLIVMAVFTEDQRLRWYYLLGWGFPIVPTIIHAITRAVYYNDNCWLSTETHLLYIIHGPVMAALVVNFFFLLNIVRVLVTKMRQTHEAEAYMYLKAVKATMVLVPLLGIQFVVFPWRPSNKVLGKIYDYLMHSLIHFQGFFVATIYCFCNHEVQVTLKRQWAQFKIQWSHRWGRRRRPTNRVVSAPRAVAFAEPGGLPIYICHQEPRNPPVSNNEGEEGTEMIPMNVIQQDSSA
T3 sequence (looked up) 2: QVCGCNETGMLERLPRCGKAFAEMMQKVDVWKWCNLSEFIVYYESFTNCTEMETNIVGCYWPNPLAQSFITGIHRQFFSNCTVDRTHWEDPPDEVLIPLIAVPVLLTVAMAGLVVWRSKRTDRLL


Key:
[1] = molecular target: T1, rat calcitonin receptor; assay: IC50 at rCTR divided by IC50 at rAmylin-R (reference)
[2] = molecular target: T1, rat calcitonin receptor; assay: SPA competition vs 125I-calcitonin, membranes with rat CTR (Assay VIII)
[3] = molecular target: T2, human calcitonin receptor; assay: IC50 at hCTR divided by IC50 at hAmylin-R (reference)
Outline: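 Membranes (35 ng/μL final) + SPA beads, 50 mM Hepes pH 7.4 buffer with 1 mM CaCl2, 5 mM MgCl₂, 0.1% OA, 0.02% Tween20; 120 min, 25° C, shaking; centrifuged, counted; IC₅₀ by one-site binding competition.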

[4] = molecular target: T3, rat amylin receptor (rat calcitonin …); assay: SPA competition vs 125I-rat amylin, membranes with rat CTR + rat RAMP3 (Assay VI)

Binder | Ratio rCT/rAmylin binding [1] | IC50 [2] [nM] | Ratio hCT/hAmylin binding [3] | IC50 [4] [nM]
K([AEEA-γGlu-C20 diacid])CNTATCATQRLANFLRHSSPNFGAIPSSTPVGSNTY-NH2 (disulfide 2-7; N-terminus assumed; SMILES CC[C@H](C)[C@H](NC(=O)[C@H](C)NC(=O)CNC(=O)[C@H](Cc1ccccc1)NC(=O)[C@H](CC(N)=O)NC(=O)[C@@H]1CCCN1C(=O)[C@H](CO)NC(=O)[C@H](CO)NC(=O)[C@H](Cc1c[nH]cn1)NC(=O)[C@H](CCCNC(=N)N)NC(=O)[C@H](CC(C)C)NC(=O)[C@H](Cc1ccccc1)NC(=O)[C@H](CC(N)=O)NC(=O)[C@H](C)NC(=O)[C@H](CC(C)C)NC(=O)[C@H](CCCNC(=N)N)NC(=O)[C@H](CCC(N)=O)NC(=O)[C@@H](NC(=O)[C@H](C)NC(=O)[C@@H]1CSSC[C@H](NC(=O)[C@@H](N)CCCCNC(=O)COCCOCCNC(=O)CC[C@H](NC(=O)CCCCCCCCCCCCCCCCCCC(=O)O)C(=O)O)C(=O)N[C@@H](CC(N)=O)C(=O)N[C@@H]([C@@H](C)O)C(=O)N[C@@H](C)C(=O)N[C@@H]([C@@H](C)O)C(=O)N1)[C@@H](C)O)C(=O)N1CCC[C@H]1C(=O)N[C@@H](CO)C(=O)N[C@@H](CO)C(=O)N[C@H](C(=O)N1CCC[C@H]1C(=O)N[C@H](C(=O)NCC(=O)N[C@@H](CO)C(=O)N[C@@H](CC(N)=O)C(=O)N[C@H](C(=O)N[C@@H](Cc1ccc(O)cc1)C(N)=O)[C@@H](C)O)C(C)C)[C@@H](C)O, modifications are with respect to human amylin; also called compound 49) | 47.7 | 51.4 | 10.8 | 1.08
K([γGlu-C20 diacid])CNTATCATQRLANFLRHSSPNFGAIPSSTNVGSKTY-NH2 (disulfide 2-7; N-terminus assumed; SMILES CC[C@H](C)[C@H](NC(=O)[C@H](C)NC(=O)CNC(=O)[C@H](Cc1ccccc1)NC(=O)[C@H](CC(N)=O)NC(=O)[C@@H]1CCCN1C(=O)[C@H](CO)NC(=O)[C@H](CO)NC(=O)[C@H](Cc1c[nH]cn1)NC(=O)[C@H](CCCNC(=N)N)NC(=O)[C@H](CC(C)C)NC(=O)[C@H](Cc1ccccc1)NC(=O)[C@H](CC(N)=O)NC(=O)[C@H](C)NC(=O)[C@H](CC(C)C)NC(=O)[C@H](CCCNC(=N)N)NC(=O)[C@H](CCC(N)=O)NC(=O)[C@@H](NC(=O)[C@H](C)NC(=O)[C@@H]1CSSC[C@H](NC(=O)[C@@H](N)CCCCNC(=O)CC[C@H](NC(=O)CCCCCCCCCCCCCCCCCCC(=O)O)C(=O)O)C(=O)N[C@@H](CC(N)=O)C(=O)N[C@@H]([C@@H](C)O)C(=O)N[C@@H](C)C(=O)N[C@@H]([C@@H](C)O)C(=O)N1)[C@@H](C)O)C(=O)N1CCC[C@H]1C(=O)N[C@@H](CO)C(=O)N[C@@H](CO)C(=O)N[C@H](C(=O)N[C@@H](CC(N)=O)C(=O)N[C@H](C(=O)NCC(=O)N[C@@H](CO)C(=O)N[C@@H](CCCCN)C(=O)N[C@H](C(=O)N[C@@H](Cc1ccc(O)cc1)C(N)=O)[C@@H](C)O)C(C)C)[C@@H](C)O, modifications are with respect to human amylin; also called compound 35) [N^ε1-[(4S)-4-carboxy-4-(19-carboxynonadecanoylamino)butanoyl]-[Arg17,Pro21,Pro27,Lys35]-h-amylin] | 65.1 | 61.7 | 50.3 | 0.948
K([γGlu-γGlu-C20 diacid])CNTATCATQRLADFLRHSSPNFGAIPSSTNVGSDTY-NH2 (disulfide 2-7; N-terminus assumed; SMILES CC[C@H](C)[C@H](NC(=O)[C@H](C)NC(=O)CNC(=O)[C@H](Cc1ccccc1)NC(=O)[C@H](CC(N)=O)NC(=O)[C@@H]1CCCN1C(=O)[C@H](CO)NC(=O)[C@H](CO)NC(=O)[C@H](Cc1c[nH]cn1)NC(=O)[C@H](CCCNC(=N)N)NC(=O)[C@H](CC(C)C)NC(=O)[C@H](Cc1ccccc1)NC(=O)[C@H](CC(=O)O)NC(=O)[C@H](C)NC(=O)[C@H](CC(C)C)NC(=O)[C@H](CCCNC(=N)N)NC(=O)[C@H](CCC(N)=O)NC(=O)[C@@H](NC(=O)[C@H](C)NC(=O)[C@@H]1CSSC[C@H](NC(=O)[C@@H](N)CCCCNC(=O)CC[C@H](NC(=O)CC[C@H](NC(=O)CCCCCCCCCCCCCCCCCCC(=O)O)C(=O)O)C(=O)O)C(=O)N[C@@H](CC(N)=O)C(=O)N[C@@H]([C@@H](C)O)C(=O)N[C@@H](C)C(=O)N[C@@H]([C@@H](C)O)C(=O)N1)[C@@H](C)O)C(=O)N1CCC[C@H]1C(=O)N[C@@H](CO)C(=O)N[C@@H](CO)C(=O)N[C@H](C(=O)N[C@@H](CC(N)=O)C(=O)N[C@H](C(=O)NCC(=O)N[C@@H](CO)C(=O)N[C@@H](CC(=O)O)C(=O)N[C@H](C(=O)N[C@@H](Cc1ccc(O)cc1)C(N)=O)[C@@H](C)O)C(C)C)[C@@H](C)O, modifications are with respect to human amylin; also called compound 2) | 366 | 108 | 47.5 | 0.295
K([γGlu-γGlu-C20 diacid])CNTATCATQRLADFLRHSSPNFGAPLSSTNVGSDTY-NH2 (disulfide 2-7; N-terminus assumed; SMILES CC(C)C[C@H](NC(=O)[C@H](CCCNC(=N)N)NC(=O)[C@H](CCC(N)=O)NC(=O)[C@@H](NC(=O)[C@H](C)NC(=O)[C@@H]1CSSC[C@H](NC(=O)[C@@H](N)CCCCNC(=O)CC[C@H](NC(=O)CC[C@H](NC(=O)CCCCCCCCCCCCCCCCCCC(=O)O)C(=O)O)C(=O)O)C(=O)N[C@@H](CC(N)=O)C(=O)N[C@@H]([C@@H](C)O)C(=O)N[C@@H](C)C(=O)N[C@@H]([C@@H](C)O)C(=O)N1)[C@@H](C)O)C(=O)N[C@@H](C)C(=O)N[C@@H](CC(=O)O)C(=O)N[C@@H](Cc1ccccc1)C(=O)N[C@@H](CC(C)C)C(=O)N[C@@H](CCCNC(=N)N)C(=O)N[C@@H](Cc1c[nH]cn1)C(=O)N[C@@H](CO)C(=O)N[C@@H](CO)C(=O)N1CCC[C@H]1C(=O)N[C@@H](CC(N)=O)C(=O)N[C@@H](Cc1ccccc1)C(=O)NCC(=O)N[C@@H](C)C(=O)N1CCC[C@H]1C(=O)N[C@@H](CC(C)C)C(=O)N[C@@H](CO)C(=O)N[C@@H](CO)C(=O)N[C@H](C(=O)N[C@@H](CC(N)=O)C(=O)N[C@H](C(=O)NCC(=O)N[C@@H](CO)C(=O)N[C@@H](CC(=O)O)C(=O)N[C@H](C(=O)N[C@@H](Cc1ccc(O)cc1)C(N)=O)[C@@H](C)O)C(C)C)[C@@H](C)O, modifications are with respect to human amylin; also called compound 1) | 104 | 135 | 27.6 | 1.3
K([γGlu-C20 diacid])CNTATCATQRLANFLRHSSPNFGAIPSSTNVGSETY-NH2 (disulfide 2-7; N-terminus assumed; SMILES CC[C@H](C)[C@H](NC(=O)[C@H](C)NC(=O)CNC(=O)[C@H](Cc1ccccc1)NC(=O)[C@H](CC(N)=O)NC(=O)[C@@H]1CCCN1C(=O)[C@H](CO)NC(=O)[C@H](CO)NC(=O)[C@H](Cc1c[nH]cn1)NC(=O)[C@H](CCCNC(=N)N)NC(=O)[C@H](CC(C)C)NC(=O)[C@H](Cc1ccccc1)NC(=O)[C@H](CC(N)=O)NC(=O)[C@H](C)NC(=O)[C@H](CC(C)C)NC(=O)[C@H](CCCNC(=N)N)NC(=O)[C@H](CCC(N)=O)NC(=O)[C@@H](NC(=O)[C@H](C)NC(=O)[C@@H]1CSSC[C@H](NC(=O)[C@@H](N)CCCCNC(=O)CC[C@H](NC(=O)CCCCCCCCCCCCCCCCCCC(=O)O)C(=O)O)C(=O)N[C@@H](CC(N)=O)C(=O)N[C@@H]([C@@H](C)O)C(=O)N[C@@H](C)C(=O)N[C@@H]([C@@H](C)O)C(=O)N1)[C@@H](C)O)C(=O)N1CCC[C@H]1C(=O)N[C@@H](CO)C(=O)N[C@@H](CO)C(=O)N[C@H](C(=O)N[C@@H](CC(N)=O)C(=O)N[C@H](C(=O)NCC(=O)N[C@@H](CO)C(=O)N[C@@H](CCC(=O)O)C(=O)N[C@H](C(=O)N[C@@H](Cc1ccc(O)cc1)C(N)=O)[C@@H](C)O)C(C)C)[C@@H](C)O, modifications are with respect to human amylin; also called compound 27) [N^ε1-[(4S)-4-carboxy-4-(19-carboxynonadecanoylamino)butanoyl]-[Arg17,Pro21,Pro27,Glu35]-h-amylin] | 147 | 90.2 | 41.3 | 0.614
